Test results: patent US8475791B2, “Anti-IL-TIF antibodies and methods of use” (ZymoGenetics, Inc., priority 1999, dated 2013)

How the values were obtained:
[1] = K-562 cytotoxicity assay (MTT); format: cell-based, human; conditions: human, K-562 cells, 100 uM, MTT absorbance
Procedure: (§1) The K-562 cell line (CRL-243, ATCC) has attained widespread use as a highly sensitive in vitro target for cytotoxicity assays. K-562 blasts are multipotential, hematopoietic malignant cells that spontaneously differentiate into recognizable progenitors of the erythrocytic, granulocytic and monocytic series (Lozzio, B B et al., Proc. Soc. Exp. Biol. Med. 166: 546-550, 1981).
(§2) K562 cells were plated at 5,000 cells/well in 96-well tissue culture clusters (Costar) in DMEM phenol-free growth medium (Life Technologies) supplemented with pyruvate and 10% serum (HyClone). Next day, human recombinant ZCYTO18 (Example 19), BSA control or retinoic acid (known to be cytotoxic to K562 cells) were added. Seventy-two hours later, the vital stain MTT (Sigma, St Louis, Mo.), a widely used indicator of mitochondrial activity and cell growth, was added to the cells at a final concentration of 0.5 mg/ml. MTT is converted to a purple formazan derivative by mitochondrial dehydrogenases. Four hours later, converted MTT was solubilized by adding an equal volume of acidic isopropanol (0.04N HCl in absolute isopropanol) to the wells. Absorbance was measured at 570 nm, with background subtraction at 650 nm. In this experimental setting, absorbance reflects cell viability. Results shown in Table 7 are expressed as % cytotoxicity.

[2] = test system: K-562 cells; test: K-562 cytotoxicity assay (MTT); format: cell-based, human; conditions: 72 hours, MTT absorbance
Procedure: as §1, §2

[3] = test system: BaF3/CRF2-4/zcytor11 cells; test: Alamar Blue proliferation assay, BaF3/CRF2-4/zcytor11 cells; format: cell-based, murine; conditions: for proliferative response (in words): 0.06-50 ng/ml, media without IL-3
Procedure: BaF3/CRF2-4/zcytor11 cells were spun down and washed in the complete media, described in Example 21A above, but without mIL-3 (hereinafter referred to as “mIL-3 free media”). The cells were spun and washed 3 times to ensure the removal of the mIL-3. Cells were then counted in a hemacytometer. Cells were plated in a 96-well format at 5000 cells per well in a volume of 100 μl per well using the mIL-3 free media.
Proliferation of the BaF3/CRF2-4/zcytor11 cells was assessed using ZCYTO18-CEE protein diluted with mIL-3 free media to 50, 10, 2, 1, 0.5, 0.25, 0.13, 0.06 ng/ml concentrations. 100 μl of the diluted protein was added to the BaF3/CRF2-4/zcytor11 cells. The total assay volume is 200 μl. The assay plates were incubated at 37° C., 5% CO2 for 3 days at which time Alamar Blue (Accumed, Chicago, Ill.) was added at 20 μl/well. Plates were again incubated at 37° C., 5% CO2 for 24 hours. Alamar Blue gives a fluourometric readout based on number of live cells, and is thus a direct measurement of cell proliferation in comparison to a negative control. […]. Plates were read on the Finax™ plate reader (Molecular Devices Sunnyvale, Calif.) using the SoftMax™ Pro program, at wavelengths 544 (Excitation) and 590 (Emmission). […] The response, as measured, was approximately 15-fold over background at the high end of 50 ng/ml down to a 2-fold induction at the low end of 0.06 ng/ml.

[4] = test system: BaF3 wild type cells; test: Alamar Blue proliferation assay, BaF3 wild type cells; format: cell-based, murine; conditions: mIL-3 free media
[5] = test system: BaF3/CRF2-4 cells; test: Alamar Blue proliferation assay, BaF3/CRF2-4 cells; format: cell-based, murine; conditions: mIL-3 free media
Procedure: BaF3, an interleukin-3 (IL-3) dependent pre-lymphoid cell line derived from murine bone marrow (Palacios and Steinmetz, Cell 41: 727-734, 1985; Mathey-Prevot et al., Mol. Cell. Biol. 6: 4133-4135, 1986), was maintained in complete media (RPMI medium (JRH Bioscience Inc., Lenexa, Kans.) supplemented with 10% heat-inactivated fetal calf serum, 2 ng/ml murine IL-3 (mIL-3) (R & D, Minneapolis, Minn.), 2 mM L-glutaMax-1™ (Gibco BRL), 1 mM Sodium Pyruvate (Gibco BRL), and PSN antibiotics (GIBCO BRL)). Prior to electroporation, CRF2-4/pZP7P was prepared and purified using a Qiagen Maxi Prep kit (Qiagen) as per manufacturer's instructions. […]
BaF3/CRF2-4/zcytor11 cells were spun down and washed in the complete media, described in Example 21A above, but without mIL-3 (hereinafter referred to as “mIL-3 free media”). […] Cells were then counted in a hemacytometer. […]
Proliferation of the BaF3/CRF2-4/zcytor11 cells was assessed using ZCYTO18-CEE protein diluted with mIL-3 free media to 50, 10, 2, 1, 0.5, 0.25, 0.13, 0.06 ng/ml concentrations. […] Alamar Blue gives a fluourometric readout based on number of live cells, and is thus a direct measurement of cell proliferation in comparison to a negative control. […] Plates were read on the Finax™ plate reader (Molecular Devices Sunnyvale, Calif.) using the SoftMax™ Pro program, at wavelengths 544 (Excitation) and 590 (Emmission). […]

[6] = molecular target: T1, ZCYTO18 (Homo sapiens, UniProt Q9GZX6); conditions: commonly owned PCT/US00/32703; cited from earlier work
T1 sequence (Q9GZX6 34-179): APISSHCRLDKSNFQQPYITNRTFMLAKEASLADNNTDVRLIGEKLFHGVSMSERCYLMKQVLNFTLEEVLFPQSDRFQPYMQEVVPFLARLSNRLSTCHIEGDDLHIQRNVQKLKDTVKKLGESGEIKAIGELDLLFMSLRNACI

CC1=C(/C=C/C(C)=C/C=C/C(C)=C/C(=O)O)C(C)(C)CCC1 [Retinoic acid, reference compound]
cytotoxicity at 72 h, 100 µM [1]: 62%

B1: ZCYTO18: novel four-helical-bundle cytokine polypeptide, SEQ ID NO:3; annotated in the literature as IL-TIF (protein, listed as Homo sapiens)
chain: MGTLATSCLLLLALLVQGGAAAPISSHCRLDKSNFQQPYITNRTFMLAKEASLADNNTDVRLIGEKLFHGVSMSERCYLMKQVLNFTLEEVLFPQSDRFQPYMQEVVPFLARLSNRLSTCHIEGDDLHIQRNVQKLKDTVKKLGESGEIKAIGELDLLFMSLRNACI
% Cytotoxicity ([2]; 100 ng/ml): 16.2%
% Cytotoxicity ([2]; 300 ng/ml): 32%
proliferative response (in words) [3]: dose-dependent proliferative response

B2: ZCYTO18-CEE: ZCYTO18 polypeptide containing C-terminal GluGlu (EE) tag (SEQ ID NO:14), purified from BHK 570 or Sf9 cells (protein)
chain: APISSHCRLDKSNFQQPYITNRTFMLAKEASLADNNTDVRLIGEKLFHGVSMSERCYLMKQVLNFTLEEVLFPQSDRFQPYMQEVVPFLARLSNRLSTCHIEGDDLHIQRNVQKLKDTVKKLGESGEIKAIGELDLLFMSLRNACIEYMPME
proliferative response over background ([3]; 50 ng/ml, mIL-3 free media, 3 days then Alamar Blue): approximately 15 fold
proliferative response (in words) [3]: dose-dependent proliferative response
proliferation in response to ZCYTO18-CEE [4]: did not proliferate
proliferation in response to ZCYTO18-CEE [5]: did not proliferate

B3: zcytor16: naturally-expressed soluble receptor antagonist of ZCYTO18 (SEQ ID NO:32, SEQ ID NO:33) (protein, listed as Homo sapiens)
chain: MMPKHCFLGFLISFFLTGVAGTQSTHESLKPQRVQFQSRNFHNILQWQPGRALTGNSSVYFVQYKIYGQRQWKNKEDCWGTQELSCDLTSETSDIQEPYYGRVRAASAGSYSEWSMTPRFTPWWETKIDPPVMNITQVNGSLLVILHAPNLPYRYQKEKNVSIEDYYELLYRVFIINNSLEKEQKVYEGAHRAVEIEALTPHSSYCVVAEIYQPMLDRRSQRSEERCVEIP
binding of ZCYTO18 and antagonism of its activity [6]: bind ZCYTO18 and antagonize its activity
